Source: US20030100489A1 (COLD SPRING HARBOR LABORATORY, published 2003)

Assays:
GAL4db-cdc2 fusion = target: T1, GAL4db-cdc2 fusion (UniProt P04386 1-147; P06493 1-297, limits assumed); assay: yeast two-hybrid (HIS3 growth and beta-galactosidase) in YPB2
T1 construct: Two-hybrid construct; also called GALAdb fusion construct containing cdc2
Description: (§1) Transformed cells were plated with and without histidine.
(§2) After growing cells in medium selective for both plasmids (minus tryptophan and minus leucine), two colonies were picked randomly and were streaked in plates that either contained or lacked histidine.

GAL4db-CDK2 fusion = target: T2, GAL4db-CDK2 fusion (UniProt P04386 1-147; P24941 1-298, limits assumed); assay: as above
T2 construct: Two-hybrid construct; also called GALAdb fusion construct containing CDK2
Description: as §1, §2

GAL4db-CDK5 fusion = target: T3, GAL4db-CDK5 fusion (UniProt P04386 1-147; Q00535 1-292, limits assumed); assay: as above
T3 construct: Two-hybrid construct; also called GALAdb fusion construct containing CDK5
Description: as §1, §2

GAL4db-PCNA fusion = target: T4, GAL4db-PCNA fusion (UniProt P04386 1-147; P12004 1-261, limits assumed); assay: as above
T4 construct: Two-hybrid construct; also called GALAdb fusion construct containing PCNA
Description: as §1, §2

CDK4 Arg24-Cys mutant = target: T5, CDK4 Arg24-Cys mutant (Homo sapiens (Human), UniProt P11802 1-303); assay: immunoprecipitation from mixed Sf9 lysates
T5 construct: Found in cells from a melanoma patient; also called mutant CDK4; Arg→Cys mutant of CDK4
T5 sequence (P11802 whole entry R24C): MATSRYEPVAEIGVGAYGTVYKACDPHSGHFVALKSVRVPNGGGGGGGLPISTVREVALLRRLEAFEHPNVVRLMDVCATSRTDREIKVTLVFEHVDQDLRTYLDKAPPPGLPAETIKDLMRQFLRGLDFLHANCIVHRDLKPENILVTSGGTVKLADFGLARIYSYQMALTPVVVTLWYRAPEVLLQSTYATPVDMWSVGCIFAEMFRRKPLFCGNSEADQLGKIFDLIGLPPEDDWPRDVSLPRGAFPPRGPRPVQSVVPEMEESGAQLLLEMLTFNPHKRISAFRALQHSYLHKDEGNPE

cdc2 = target: T6, cdc2 (human, UniProt P06493 1-297); assay: anti-CDC2 immunoprecipitation from TGF-β arrested human keratinocytes
T6 construct: Untagged: 35S-labelled in vitro translated, or endogenous in HaCaT human keratinocytes; also called CDK1
T6 sequence (P06493 whole entry): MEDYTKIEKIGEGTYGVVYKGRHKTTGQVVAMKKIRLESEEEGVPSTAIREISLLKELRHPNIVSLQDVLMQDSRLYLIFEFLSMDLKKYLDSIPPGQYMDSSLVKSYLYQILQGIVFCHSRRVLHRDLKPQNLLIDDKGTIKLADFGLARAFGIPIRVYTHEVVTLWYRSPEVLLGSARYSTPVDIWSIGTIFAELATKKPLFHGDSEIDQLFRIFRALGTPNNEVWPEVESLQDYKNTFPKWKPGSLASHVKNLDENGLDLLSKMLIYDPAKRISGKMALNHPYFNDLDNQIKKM

CDK2 = CDK2 (human, UniProt P24941 1-298); assay: anti-CDK2 immunoprecipitation from TGF-β arrested human keratinocytes

Binder	binding result (GAL4db-cdc2 fusion)	binding result (GAL4db-CDK2 fusion)	binding result (GAL4db-CDK5 fusion)	binding result (GAL4db-PCNA fusion)	binding result (CDK4 Arg24-Cys mutant)	binding result (cdc2)	binding result (CDK2)
GAL4ad-p16 fusion (other, not shown: large carriers, Two-hybrid construct in yeast YPB2; also called GALAad-p16) MEPAAGSSMEPSADWLATAAARGRVEEVRALLEAGALPNAPNSYGRRPIQVMMMGSARVAELLLLHGAEPNCADPATLTRPVHDAAREGFLDTLVVLHRAGARLDVRDAWGRLPVDLAEELGHRDVARYLRAAAGGTRGSNHARIDAAEGPSDIPD	no binding	no binding	no binding	no binding			
p16 (other, also called human p16) MEPAAGSSMEPSADWLATAAARGRVEEVRALLEAGALPNAPNSYGRRPIQVMMMGSARVAELLLLHGAEPNCADPATLTRPVHDAAREGFLDTLVVLHRAGARLDVRDAWGRLPVDLAEELGHRDVARYLRAAAGGTRGSNHARIDAAEGPSDIPD					no binding		
p15 (other, Untagged p15: endogenous in HaCaT human keratinocytes or overexpressed in Sf9 cells (lysate); also called human p15; protein of approx. 15 kDa) MREENKGMPSGGGSDEGLATPARGLVEKVRHSWEAGADPNGVNRFGRRAIQVMMMGSARVAELLLLHGAEPNCADPATLTRPVHDAAREGFLDTLVVLHRAGARLDVRDAWGRLPVDLAEERGHRDVAGYLRTATGD					no binding	no binding	no binding
